# Test system: MS2 coat protein
# Test: apparent KD of MS2 coat protein; designed switch direction (-1 OFF switch, 1 ON switch): -1; higher = weaker reporter binding
# How it was run: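 Designed RNA switches with common flanks were transcribed on Illumina chips by stalled E. coli RNA polymerase and titrated with SNAP-549-labelled MS2 coat protein, from 0.7 or 1.5 nM doubling to 3 µM, in Tris-HCl pH 7.5 buffer with KCl, MgCl2, BSA, DTT, tRNA and Tween-20. Steps lasted 0.8–1.5 h (lowest) to 10–20 min (highest). Titrations ran without input, with 200 uM small-molecule ligand, or with an oligonucleotide input. Normalised cluster fluorescence was curve-fitted, and apparent KD is the per-design median over clusters.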
# [1] = Eterna round: R95, input ligand: FMN 200 uM
# [2] = Eterna round: R95, input ligand: microRNA oligo, concentration not stated
# [3] = Eterna round: R95, input ligand: none
# [4] = input ligand: microRNA oligo, concentration not stated
Sequence,apparent KD of MS2 coat protein [1] [nM],apparent KD of MS2 coat protein [2] [nM],apparent KD of MS2 coat protein [3] [nM],apparent KD of MS2 coat protein (input ligand: FMN 200 uM) [nM],apparent KD of MS2 coat protein [4] [nM],apparent KD of MS2 coat protein (input ligand: none) [nM]
"UUUAAUUUUUUUUUUUUACAAGCUUUUUGCUCGUCUUAUACAUGAGGAUCACCCAUGUAGGUGAAGAGUAAAUUAUC [JMF 58] (puzzle: Sensor v3, turn-off variant 2)",19.4,109,16.5,,,
UAGGUACAUGAGGAUCACCCAUGUGAGGAUAUAGAGGAAGAUUGCGAGAGGGAGAGGACUAGAAGGCACAGUGG [JR_Exclu1_Sub035] (puzzle: Exclusion 1),37,28.1,39.9,,,
"CCUUAUUAUCGAGGAUAUCCUAUUGAAAUUCUGGGAGAAGGCGGACUCAACAUGAGGAUCACCCAUGUGGGACGGAUGCUAGGA [salish99_exng1_r04_603] (Eterna round: R96, puzzle: Exclusion NG 1)",,,,21,13.5,20.2
"GGUGUUGAAGGAUAUACAUGAGGAUCACCCAUGUACCGCUCGGACAAGAUAUCAUUCAGUAGAAGGUCGGACCG [Eternabot (L2) Solution 11] (Eterna round: R97, puzzle: Exclusion 3)",,,,66.5,,150
"ACAAGCUUUUUGUUCGUCUUAUACACUCCUAAUAAGAAAACAUGAGGAUCACCCAUGUAAGAAAUAAGAACUCAUGU [Sesor Array 1 - Jieux - Sensor v3, turn-off variant 2] (puzzle: Sensor v3, turn-off variant 2)",225,303,213,,,
AUAACUCUAGUCAGGAUAUGCGAGCAAGGAUUAGAGCAGAAGGGACAUGAGGAUCACCCAUGUGGUAGCUGGGU [Indiraa] (puzzle: Brourd's mod of Exclusion 4),33.6,47.3,77.5,,,
"UUCAUUGCAGGAUAUACAUGAGGAUCACCCAUGUGACCAGUGGCCUGUUGCGGCUCCAGUAGAAGGGCAUGUGU [Eternabot (L2) Solution 89] (Eterna round: R97, puzzle: Exclusion 3)",,,,63.8,,61.2
UAAAAGCUAGGAUAUACAUGAGGAUCACCCAUGUAAUCUCUCACUUACACGGAGGAUCGUAGAAGGAGCACAAA [Inlaveti] (puzzle: Exclusion 3),,20.3,,,,
"GGAAUGUAAGGAUAUCCGAAAGGCGAGCGAAAGCGAGCAAAGGAGAAGGUACAUGAGGAUCACCCAUGUAAGGG [AK-MS2ROC-r4-exclusion4-11.3] (Eterna round: R97, puzzle: Exclusion 4)",,,,163,,513
"AGCUGUGGCCGAGGAUAUCUAAAUUCUCAAAACGAAAUAUAAUCGAACAUGAGGAUCACCCAUGUAGAGAAGGCGGUCUCAGCA [Eli eng2 - 032] (Eterna round: R96, puzzle: Exclusion NG 2)",,,,,34.6,
AAAAAGGUAGGAUAUACGAAAAAAAAGGGUAGAAAAAAAACACAUGAGGAUCACCCAUGUAGAAGGACCAAAAA [salish99_ex2_r3_043] (puzzle: Exclusion 2),97.3,26.8,26.1,,,
"UAAGGUCGUCAAUACCUAACCACAUGAGGAUCACCCAUGUCUGAGGAUAUGAAGGCGGCCCGCCAUUAGAAGGCAGCAAGGGAA [Ustiarmadi] (Eterna round: R96, puzzle: Exclusion NG 3)",,,,13.2,7.89,14.4

# — the supplement of paper PMC9170038
